Measurements as given in patent publication US20190092856A1 (published 2019).
Changes are numbered by the printed parent chain.

T1: Cynomolgus monkey (Macaca fascicularis) OSM, recombinant, in-house (cynomolgus monkey, UniProt P13725 26-221 (human entry), limits assumed)
T1 construct: His/AviTag construct expressed in HEK 293; also called Cyno OSM; cyno OSM
T1 chain: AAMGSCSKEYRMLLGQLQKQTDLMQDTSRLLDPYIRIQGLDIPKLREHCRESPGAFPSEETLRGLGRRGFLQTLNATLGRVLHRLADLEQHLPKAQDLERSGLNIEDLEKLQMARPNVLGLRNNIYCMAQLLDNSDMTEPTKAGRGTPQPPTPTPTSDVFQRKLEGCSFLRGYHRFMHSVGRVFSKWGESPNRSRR

T2: human OSM (recombinant, mammalian-cell derived, OSMN1-1) (human, UniProt P13725 26-221)
T2 construct: Precursor and mature (amino acids 1-184) forms were both expressed in HEK 293; also called hOSM; human oncostatin M
T2 sequence: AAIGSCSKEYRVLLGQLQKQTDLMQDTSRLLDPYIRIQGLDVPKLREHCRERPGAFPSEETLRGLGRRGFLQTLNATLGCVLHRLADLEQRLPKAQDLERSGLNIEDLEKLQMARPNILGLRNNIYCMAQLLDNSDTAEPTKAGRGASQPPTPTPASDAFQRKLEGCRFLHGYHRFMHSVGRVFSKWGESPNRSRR

T3: native human Oncostatin M (macrophage-derived) (human, UniProt P13725 26-221, limits assumed)
T3 sequence: T2 sequence

T4: CHO cell-derived recombinant cynomolgous monkey oncostatin M (in-house) (cynomolgus monkey, UniProt P13725 26-221 (human entry), limits assumed)
T4 chain: T1 chain

T5: CHO cell-derived recombinant human oncostatin M (in-house) (human, UniProt P13725 26-221, limits assumed)
T5 sequence: T2 sequence

B1: M9 (antibody, V domains shown)
VH: EVQLVQSGAEVKKPGESLKISCKGSGYSFTSYWISWVRQMPGKGLEWMGIIYPGDSYTRYSPSFQGQVTISADKSISTAYLQWSSLKASDTAMYYCARVPVSPAYLDYWGQGTLVTVSS
VL: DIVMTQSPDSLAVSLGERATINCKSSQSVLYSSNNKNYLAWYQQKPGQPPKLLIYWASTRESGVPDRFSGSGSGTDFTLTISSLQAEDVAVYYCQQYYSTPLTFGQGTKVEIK
notes: Tested as full-length human IgG1; also called OSMM9
B2: M71 (antibody, V domains shown)
VH: B1 VH
VL: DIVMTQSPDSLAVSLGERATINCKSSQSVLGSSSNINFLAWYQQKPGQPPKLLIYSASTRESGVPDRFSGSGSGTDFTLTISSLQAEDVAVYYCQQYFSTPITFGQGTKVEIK
notes: Human IgG1; also called H17/L180
B3: M6 (antibody, V domains shown)
VH: B1 VH with V99G, P100S, S102F, P103E, L106F
VL: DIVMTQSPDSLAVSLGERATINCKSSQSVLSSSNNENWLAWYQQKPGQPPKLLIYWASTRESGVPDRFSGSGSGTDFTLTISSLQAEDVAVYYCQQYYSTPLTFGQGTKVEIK
notes: Tested as full-length human IgG1; also called OSMM6; H14/L12
B4: M5 (antibody, V domains shown)
VH: EVQLVQSGAEVKKPGESLKISCKGSGYSFTSYWIGWVRQMPGKGLEWMGIIYPGDSDTRYSPSFQGQVTISADKSISTAYLQWSSLKASDTAMYYCARGFGASYLDYWGQGTLVTVSS
VL: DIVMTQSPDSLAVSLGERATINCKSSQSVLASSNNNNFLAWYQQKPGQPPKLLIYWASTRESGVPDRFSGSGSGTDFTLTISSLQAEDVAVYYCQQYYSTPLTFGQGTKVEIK
notes: Tested as full-length human IgG1; also called OSMM5; H135/L111
B5: Human gp130-Fc (R&D Systems, Cat. No. 671-GP) (Fc fusion, UniProt P40189 23-619, looked up)
chain: ELLDPCGYISPESPVVQLHSNFTAVCVLKEKCMDYFHVNANYIVWKTNHFTIPKEQYTIINRTASSVTFTDIASLNIQLTCNILTFGQLEQNVYGITIISGLPPEKPKNLSCIVNEGKKMRCEWDGGRETHLETNFTLKSEWATHKFADCKAKRDTPTSCTVDYSTVYFVNIEVWVEAENALGKVTSDHINFDPVYKVKPNPPHNLSVINSEELSSILKLTWTNPSIKSVIILKYNIQYRTKDASTWSQIPPEDTASTRSSFTVQDLKPFTEYVFRIRCMKEDGKGYWSDWSEEASGITYEDRPSKAPSFWYKIDPSHTQGYRTVQLVWKTLPPFEANGKILDYEVTLTRWKSHLQNYTVNATKLTVNLTNDRYLATLTVRNLVGKSDAAVLTIPACDFQATHPVMDLKAFPKDNMLWVEWTTPRESVKKYILEWCVLSDKAPCITDWQQEDGTVHRTYLRGNLAESKCYLITVTPVYADGPGSPESIKAYLKQAPPSKGPTVRTKKVGKNEAVLEWDQLPVDVQNGFIRNYTIFYRTIIGNETAVNVDSSHTEYTLSSLTSDTLYMVRMAAYTDEGGKDGPEFTFTTPKFAQGEIE
notes: Bought fusion protein; also called gp130-Fc chimera; Fc part of the bought chimera not given, not described
B6: M10 (antibody, V domains shown)
VH: QVQLVQSGAEVKKPGSSVKVSCKASGGTFSSYAISWVRQAPGQGLEWMGGIIPIFGNANYAQKFQGRVTITADESTSTAYMELSSLRSEDTAVYYCARYGAKGLLDYWGQGTLVTVSS
VL: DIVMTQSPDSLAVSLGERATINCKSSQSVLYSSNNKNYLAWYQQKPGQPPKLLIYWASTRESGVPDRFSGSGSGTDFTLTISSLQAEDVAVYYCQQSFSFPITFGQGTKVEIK
notes: Tested as full-length human IgG1; also called OSMM10; H2/L2

Key:
[1] = biological target: T1, Cynomolgus monkey (Macaca fascicularis) …; test: SPR (Biacore), KD for cyno OSM over KD for human OSM
Description: (§1) The binding affinities were measured using Surface Plasmon Resonance (SPR) with a Biacore 3000 optical biosensor (Biacore) using human or Cyno OSM constructs as described. […] Approximately 19,000 RU (response units) of anti-OSM antibody were immobilized in each of four flow cells. The kinetic experiments were performed at 25° C. in running buffer (DPBS+0.005% P20+3 mM EDTA). Serial dilutions Human and Cyno OSM ECD from 100 nM to 0.412 nM were prepared in running buffer. About 200 RU of mAb were captured on flow cells 2 to 4 of the sensor chip. Flow cell 1 was used as reference surface. Capture of mAb was followed by a three-minute injection (association phase) of antigen at 50 μl/min, followed by 10 minutes of buffer flow (dissociation phase). The chip surface was regenerated by two pulses of 18-second injections of 100 mM H3PO4 (Sigma, Cat. No. 7961) at 50 μl/min.
(§2) The collected data was processed using the BIAevaluation software (Biacore, version 3.2). First, double reference subtraction of the data was performed by subtracting the curves generated by buffer injection from the reference-subtracted curves for analyte injections. Kinetic analysis of the data was performed using 1:1 binding model with global fit. The result for each mAb was reported in the format of Ka (On-rate), Kd (Off-rate) and KD (affinity constant).

[2] = biological target: T1, Cynomolgus monkey (Macaca fascicularis) …; test: SPR (Biacore), mAb captured by anti-Fc, OSM as analyte
Description: as §1, §2

[3] = biological target: T2, human OSM (recombinant, mammalian-cell …); test: as above
Description: as §1, §2

[4] = biological target: T2, human OSM (recombinant, mammalian-cell …); test: cell-based or functional assay
[5] = biological target: T2, human OSM (recombinant, mammalian-cell …); test: SPR competition, second chip, hOSM captured on immobilized M2 (competitor), sample at 300 nM
Description: (§3) The biosensor surface was prepared by coupling each test mAb to the carboxymethylated dextran surface of a CM-5 chip (Biacore, Cat# BR-1000-14) following the manufacturer's instructions. Approximately 4,000-15,000 RU (response units) of each test mAb were immobilized in one the instrument's four flow cells. Competition experiments were performed at 25 ° C. in running buffer (DPBS+0.005% P20+3 mM EDTA). Human OSM (in-house, OSMN1-1) was diluted to 30 nM in running buffer and injected at 3 μl/min for 3 minutes over each of the flow cells with immobilized mAb. […] The chip surface was regenerated by two 12-second pulses of 100 mM H3PO4 (Sigma, Cat# 7961) at 50 μl/min. The collected data were processed using BIAevaluation software version 3.2 (Biacore). First, the sensorgrams were aligned upon injection of human OSM. […] Flow-cell (Fc1, etc.) immobilized mAbs appear along the horizontal sample rows of Table 10.

[6] = biological target: T2, human OSM (recombinant, mammalian-cell …); test: SPR competition, hOSM captured on immobilized M2 (competitor), sample at 300 nM
Description: as §3

[7] = biological target: T2, human OSM (recombinant, mammalian-cell …); test: SPR competition, hOSM captured on immobilized M71 (competitor), sample at 300 nM
Description: as §3

[8] = biological target: T2, human OSM (recombinant, mammalian-cell …); test: SPR competition, second chip, hOSM captured on immobilized M64 (competitor), sample at 300 nM
Description: as §3

[9] = biological target: T2, human OSM (recombinant, mammalian-cell …); test: SPR competition, hOSM captured on immobilized M54 (competitor), sample at 300 nM
Description: as §3

[10] = biological target: T3, native human Oncostatin M …; test: cell-based or functional assay
[11] = biological target: T2, human OSM (recombinant, mammalian-cell …); test: cell-based or functional assay; remark: listed apart in the source
[12] = biological target: T4, CHO cell-derived recombinant …; test: cell-based or functional assay
[13] = biological target: T5, CHO cell-derived recombinant human …; test: cell-based or functional assay
[14] = biological target: T2, human OSM (recombinant, mammalian-cell …); test: SPR competition, second chip, hOSM captured on immobilized M55 (competitor), sample at 300 nM
Description: as §3

[15] = biological target: T2, human OSM (recombinant, mammalian-cell …); test: SPR competition, hOSM captured on immobilized M69 (competitor), sample at 300 nM
Description: as §3

Binder	KD ratio Cyno/Human [1]	Kd [2] [nM]	koff [2] [s⁻¹]	kon [2] [M⁻¹ s⁻¹]	Kd [3] [nM]	koff [3] [s⁻¹]	kon [3] [M⁻¹ s⁻¹]	pSTAT3 inhibition EC50 (A375 cells, 5 ng/ml hOSM) [4] [ng/ml]	Binding Level (RU) [5] [RU]	Binding Level (RU) [6] [RU]	Binding Level (RU) [7] [RU]	Binding Level (RU) [8] [RU]	Binding Level (RU) [9] [RU]	EC50, increase of proteoglycan synthesis in macrophage-chondrocyte co-culture [10] [µg/mL]	IC50, neutralization of OSM-induced STAT3 phosphorylation in NHLF cells (2 ng/ml OSM) [11] [µg/mL]	IC50, neutralization of OSM suppression of A375-S2 proliferation (BrdU) [12] [µg/mL]	IC50, neutralization of OSM suppression of A375-S2 proliferation (BrdU) [13] [µg/mL]	Binding Level (RU) [14] [RU]	Binding Level (RU) [15] [RU]
B1	0.6	0.73	5.4e-05	73100	1.22	8.1e-05	66300	1220	–	–	–	–	–	–	–	–	–	–	–
B2	–	–	–	–	–	–	–	160	1130	1190	32	17	-1	0.03	0.0089	0.0397	0.0219	22	23
B3	1.4	1.48	0.000299	203000	1.03	0.000197	192000	650	926	985	19	33	11	–	–	–	–	36	16
B4	1	12.1	0.00111	92200	11.8	0.000779	65900	–	–	–	–	–	–	–	–	–	–	–	–
B5	–	–	–	–	–	–	–	–	251	319	29	18	17	–	–	–	–	25	20
B6	18.1	18.9	0.00101	53300	1.05	6.3e-05	60200	–	–	–	–	–	–	–	–	–	–	–	–
